Source: the RNAGym collection of RNA variant scans (doi:10.1073/pnas.2313332121)
Variants at the floor of the assay were thinned out.

B1: TPR 5TU (parent)
chain: GGAUCUUCUCGAUCUAACAAAAAAGACAAAUCUGCCACAAAGCUUGAGAGCAUCUUCGGAUGCAGAGGCGGCAGCCUUCGGUGGCGCGAUAGCGCCAACGUUCUCAACUAUGACACGCAAAACGCGUGCUCCGUUGAAUGGAGUUUAUCAUG

Variants of: B1
Assay: polymerase ribozyme fitness, log enrichment relative to wild type (log ratio); higher = more active; in vitro selection for triplet polymerase activity
How it was run: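 Both subunits of a heterodimeric triplet polymerase ribozyme were given their own mutant library, built by PCR and transcribed. Each library was annealed with a biotinylated primer, the partner subunit and triplets, incubated frozen at −7 °C, and its extended constructs gel-excised, captured on streptavidin beads and amplified by RT-PCR, all in one round done in triplicate. Fitness is the logarithm of genotype enrichment relative to wild-type enrichment, with replicates averaged by inverse-variance weighting. That logarithm is base 2, and Illumina-sequenced genotypes needed ≥10 input reads and ≥1 read per output.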

| Variant | polymerase ribozyme fitness (log ratio) |
| --- | --- |
| A22G U82A G83A C105U | 0.185 |
| G25C A91U C96U C99A C108A A138G | ≤ -4.2 |
| A22U U55G C57U | 0.196 |
| A23G G59U C75G U90C C129A | ≤ -4.2 |
| A24U C57A G83U A97U U146A | -1.51 |
| A23C G25C C32U A52C C85A | ≤ -4.2 |
| A23G C27A C32U G50C A73G C85G | ≤ -4.2 |
| A23C C27U A47C C57A A73G A91G U101G U134A | ≤ -4.2 |
| A23C C85A G88A A120U U146G | ≤ -4.2 |
| A22U G84A | -0.556 |
| A22U C38U U53A G74C U90C A120U | ≤ -4.2 |
| A23U U56A | -3.49 |
| A22U A49G A60G G83U G84U | -3.24 |
| A23G A47C C103G A122G U145A | ≤ -4.2 |
| A22U C35A A41C U53G C87U A97C C108U U151A | ≤ -4.2 |
| A23G C32G A52U C85A U102G U127G | ≤ -4.2 |
| A23G A41G U55A U90C C96G C99A | ≤ -4.2 |
| A22G U53G C54G U55C A73G A91C C105U C116U U127G U135C | ≤ -4.2 |
| G25U A28U G50A G83C C87G A89U A91G | ≤ -4.2 |
| A23G G46A C87U C132G | ≤ -4.2 |
| G25A A40G C43U G62C C85U G86A C95A G133U | ≤ -4.2 |
| A22U A47U C51U C95A C99U | -1.72 |
| A22U C32U A47U G83A C125U | ≤ -4.2 |
| A22U U45A C57U G58A G59U C87A | ≤ -4.2 |

| Variant | polymerase ribozyme fitness (log ratio) |
| --- | --- |
| A24U A98G | 0.444 |
| A24C G46A C57G C75G A89G C96G | ≤ -4.2 |
| A23G C85A | -2.98 |
| G25C A64U C125G | ≤ -4.2 |
| A23C C79U C96U C99A | ≤ -4.2 |
| A23G A40U C76U C87U A89G G133C | ≤ -4.2 |
| A22U C85U U134G G143C C149A | ≤ -4.2 |
| A23G U56A | -2.39 |
| A24U C85A | -1.22 |
| A24U C85G | -2.77 |
| A24U C79A | -4.12 |
| A22U A49U U55A G84U G100U C108U | ≤ -4.2 |
| A23C G58A C96U A106G | ≤ -4.2 |
| A24G C43U A73G G83U U101G C105G U127C G140C | ≤ -4.2 |
| A23C A29G C96G U139G | -4.19 |
| A22U G70U C87A A119U | ≤ -4.2 |
| A22U C43A C57G C93U C96U | ≤ -4.2 |
| G25A A29C A40U G68C C93A A97U | ≤ -4.2 |
| A24G C38U | ≤ -4.2 |
| A24U A30C C38U U45A G92U | ≤ -4.2 |
| A24G G83C U101G C123A G141U | ≤ -4.2 |
| A24G G71C G83C C87U C96U C149A | ≤ -4.2 |
| G25C C57U | -2.94 |
| A22U U55A C57A C85G | -1.44 |

| Variant | polymerase ribozyme fitness (log ratio) |
| --- | --- |
| A23U G34A U53G G74A U139A | ≤ -4.2 |
| G25C A119C G136A | -3.75 |
| G25C A28U C54U G83A C99U G124A | ≤ -4.2 |
| G25C C99U C114G C118U | ≤ -4.2 |
| G25A U44G C85U A106C | ≤ -4.2 |
| A24C A66C G71C G84U | ≤ -4.2 |
| A23C U53A C57U C96G C103G | ≤ -4.2 |
| G25C U33G G59A U78A G92C C99A G100U U134A | ≤ -4.2 |
| A22G U55A G83U C129A | -3.65 |
| A24C C79U | ≤ -4.2 |
| A24C G58A G112U A122G | ≤ -4.2 |
| A22U U61G G86A U104G | ≤ -4.2 |
| A23U C54U C57U G68A C87A A91G G133U | ≤ -4.2 |
| A24U U44A C57G G74U C76A G100A A138C | ≤ -4.2 |
| A24U A40G C57A C96A C99U U134A | ≤ -4.2 |
| A23U G48A C87G U104C | ≤ -4.2 |
| A23C A24U U61C G83A G112U U127G | ≤ -4.2 |
| A24U C96A | 0.632 |
| A23G G58A C87U A121C | -3.82 |
| A24U C114G | -3.34 |
| A24U A91G A97G A115U | -4.19 |
| A24U C57G G92U A147U | -0.341 |
| G25C U44A A66G G71A A91U C131U C132G | ≤ -4.2 |
| A22U A39C G59C G143A | -4.09 |

| Variant | polymerase ribozyme fitness (log ratio) |
| --- | --- |
| A22U U53A G92A G141A | -3.56 |
| A24U U44G A66C G143A | -4.09 |
| A23U C43U A73U C85A A97C C105G G140U | ≤ -4.2 |
| A23C U55A | -3.85 |
| A24G C27G A30U G48C G92U | ≤ -4.2 |
| A23U C76G C93G | ≤ -4.2 |
| A22U A28U C38G C51U G83C | ≤ -4.2 |
| G25A C75A A91U | ≤ -4.2 |
| G25A C35U G50C G88U C118G U151G | ≤ -4.2 |
| A22U A24U G141U | 1.41 |
| A22U G81A C125A | -0.142 |
| A24C U55A A60G A97U | ≤ -4.2 |
| A23C U56A G81A U90A C95G G143U | ≤ -4.2 |
| A24U U31C C38U U82A G84A | 0.365 |
| A22G U109G | -0.357 |
| A23G C54G G80C C105U C108U A113C C132G | ≤ -4.2 |
| A22U C38A G50U U56A C75G C93U U134A | ≤ -4.2 |
| A24G A40U U61C A137C A142C | ≤ -4.2 |
| A22U C54U G88C A106G U146A | ≤ -4.2 |
| A24C A47C C57U A121U | ≤ -4.2 |
| A23U A24U A73G G88A A91C C114U | ≤ -4.2 |
| A24C C35U C87G A98U C103U C125G | ≤ -4.2 |
| A23U A28G C87U U145A | ≤ -4.2 |
| A24U U61A C93U U101C | -3.93 |

| Variant | polymerase ribozyme fitness (log ratio) |
| --- | --- |
| A24U C27G C38U C87U A91G C93G G133U | ≤ -4.2 |
| G25A C87G A98U | ≤ -4.2 |
| A23C C72U C87A C96U C105U | ≤ -4.2 |
| A23G C96U | -2.56 |
| G25C U53G C57A A120C G128A | ≤ -4.2 |
| A22U C35A G65A C69A C116U G117C | -3.86 |
| A24U C38A | 0.851 |
| G25A C96G C99G G152U | ≤ -4.2 |
| A24G G70C C79U C95A C96G | ≤ -4.2 |
| A24G C123U G140C | ≤ -4.2 |
| A24G A40U C43U A49C G84A G100U G124A C125G U145G | ≤ -4.2 |
| A23U C118U | -3.62 |
| G25A C54A G58A G84A A120G G126U | -3.36 |
| A24U A52U C95U | -1.25 |
| A23C A41C C54G U77A A91G C105G G126A G136A A137G | ≤ -4.2 |
| A24G G25U C75G G80A C85G U130A A142C | ≤ -4.2 |
| A23C C35U G65A A66U C76A U78G | ≤ -4.2 |
| A23U U56A C93A U101G U127A A137U U139A C149A | ≤ -4.2 |
| A24C C43A U45A | ≤ -4.2 |
| A24C G48C C118G | ≤ -4.2 |
| A22U U53C G92U | -0.0274 |
| A23U A29U G50A C69G A89C G112C A120U A122U | ≤ -4.2 |
| A22U U82C C93G C103G U151G | ≤ -4.2 |
| G25A U31A C51U G81C G84U G152U | ≤ -4.2 |

| Variant | polymerase ribozyme fitness (log ratio) |
| --- | --- |
| G25A A41U C43U C54U U55A G70A G92A G133U U139G | ≤ -4.2 |
| A24C G58C C72G U130G | ≤ -4.2 |
| A22U A89U C105U | 0.731 |
| A22U G50C C54A C63G A106U A119G | -3.06 |
| A23G U134A | ≤ -4.2 |
| A24C G48A G84U A106U A142U | ≤ -4.2 |
| A23U C54G U61A C72A G86A G141A | ≤ -4.2 |
| A24U C36U A60G G80A G94C | -3.57 |
| A24U A39U U56A G94A | -3.21 |
| A22U U55G | -0.206 |
| A22U G50C C63U G71A G84A G117U A122U | -4 |
| A23U G74U A91U | ≤ -4.2 |
| A22U C43A G86A U90A | ≤ -4.2 |
| A22U A37C C96U A142C | -1.63 |
| A24C A52G G84C G88U C95U C96U U102G | ≤ -4.2 |
| G25C G83A A107C U134G | ≤ -4.2 |
| A23C A26C A52U C63A C131U G141U U145C | ≤ -4.2 |
| A22U A98G | -0.232 |
| A23C G42C U77A G80C U101G | ≤ -4.2 |
| A23U C63A C114G | ≤ -4.2 |
| A23U U44G C76A C79U U82A G86A G143A | ≤ -4.2 |
| A23U U139A | ≤ -4.2 |
| A22U A24G C43U C57G G59A A89G G92C U135A | ≤ -4.2 |
| A22U C38U A73U C96U | 0.145 |

| Variant | polymerase ribozyme fitness (log ratio) |
| --- | --- |
| A23G A37G C95A C118G G140A | ≤ -4.2 |
| A23C A30C A52C C95U U144A | ≤ -4.2 |
| A24G A60G G68A G86C G124C | ≤ -4.2 |
| G25A A39G G68C C95U | ≤ -4.2 |
| A23U C51U C76A C96G C103G A115G | ≤ -4.2 |
| A24G A49C G92U A122C | ≤ -4.2 |
| A24U A26G C51U A64U A66C C69U C108A C123A | ≤ -4.2 |
| A24U C27A G42C C75A U82G C96U C108A A138C | ≤ -4.2 |
| A23C A37C U53A A64C U90C C96G U101G | ≤ -4.2 |
| A22U C75G C76U G94C A110U A147U | ≤ -4.2 |
| G25A C79G U90A U104A G117U | ≤ -4.2 |
| A23U A30C C35A A106C | ≤ -4.2 |
| A23G A24U G58A A60G C85G U101A G128A U130C U144G | ≤ -4.2 |
| A23U G80A A150G | ≤ -4.2 |
| A24C C96G C118A | -4.19 |
| A22U A52C U55A G67U | ≤ -4.2 |
| A23C A41C C85A U90G G124U U135G | ≤ -4.2 |
| A24U G65U A91C U104A A110G G140A U144G | ≤ -4.2 |
| A23G C54G U56A A138U G140U U146C | ≤ -4.2 |
| A22U C57U | -0.0575 |
| G25C G46A G50U G83A C95A A97G U127G | ≤ -4.2 |
| A24U A66C A73G C79G C87A G88U C116A C118A | ≤ -4.2 |
| A24G C35U | -3.09 |
